Data on 14 molecules can be found in patent US20140221613A1.

Experiment [1] has as its target IgG1 type humanized monoclonal antibody.
Experiment [2] shares this target. The source holds these as a separate data set.
Experiment [3] has the same target. The experiment is described as follows: SPR, IgG1 antibody immobilised, pH 7.4. In general terms: SPR reads the build-up and loss of mass on a sensor chip optically.
Experiment [4] shares this target. The source holds these as a separate data set.
Experiment [5] addresses Fc region of human immunoglobulin (human). The experiment is described as follows: pH 4.5.
For experiment [6] the target is unchanged. The experiment is described as follows: pH 7.4.
Experiment [7] shares this target. In words: SPR, Fc immobilised, weakly acidic region.
The target is the same in experiment [8]. The experiment is described as follows: SPR, Fc immobilised, neutral region.
Experiment [9] deals with human immunoglobulin IgG.
Experiment [10] has as its target human immunoglobulin IgG. The source holds these as a separate data set.

Values joined by “and” are separate entries in the source; they are usually repeats but may differ in a detail not shown here. Equal entries are not always repeated.

B1: CGB19H-5D (designed binder)
chain: MAYYDPETGTWYSGGRDTYKLILNGKTLKGETTTEAVDAATAEKVFKHYANEHGVHGHWTYDPETKTFTVTERPEVIDASELTPAVDTYKLILNGKTLKGETTTEAVDAATAEKVFKHYANEHGVHGHWTYDPETKTFTVTERPEVIDASELTPAVDTYKLILNGKTLKGETTTEAVDAATAEKVFKHYANEHGVHGHWTYDPETKTFTVTERPEVIDASELTPAVDTYKLILNGKTLKGETTTEAVDAATAEKVFKHYANEHGVHGHWTYDPETKTFTVTERPEVIDASELTPAVDTYKLILNGKTLKGETTTEAVDAATAEKVFKHYANEHGVHGHWTYDPETKTFTVTERPEVIDASELTPAVGGGGSGGGGSGGGGSGGGGCHHHHHH
Consider B1, for which, in [1], the Dissociation Rate of Antibody at an acidic pH, pH2 (30s) later is 63.4% and 81.8%; the Dissociation Rate of Antibody at an acidic pH, pH5 (30s) later is 5.6% and 2.1%. In addition, the Binding Rate of Antibody after Running Buffer for 10 min (Binding portion) in experiment [2] was 65.2% and 82.7%.

B2: CGB19H-3D (designed binder)
chain: MAYYDPETGTWYSGGRDTYKLILNGKTLKGETTTEAVDAATAEKVFKHYANEHGVHGHWTYDPETKTFTVTERPEVIDASELTPAVDTYKLILNGKTLKGETTTEAVDAATAEKVFKHYANEHGVHGHWTYDPETKTFTVTERPEVIDASELTPAVDTYKLILNGKTLKGETTTEAVDAATAEKVFKHYANEHGVHGHWTYDPETKTFTVTERPEVIDASELTPAVGGGGCHHHHHH
In the case of B2, in experiment [1], the Dissociation Rate of Antibody at an acidic pH, pH2 (30s) later was 51.2% and 67.4%; the Dissociation Rate of Antibody at an acidic pH, pH3 (30s) later is 36.2% and 29.9%; the Dissociation Rate of Antibody at an acidic pH, pH5 (30s) later was 6.4% and 4.6%. For the same molecule, in experiment [2], the Binding Rate of Antibody after Running Buffer for 10 min (Binding portion) was 62.5% and 69.6%. In experiment [3], this molecule gave a fold avidity improvement against M-PG19 of 190 fold and a fold difference of the dissociation rate constant against M-PG19 of 370 times. In addition, the equilibrium dissociation constant (Kd) – broadly, a measure of binding affinity in units of concentration – in experiment [4] turned out to be 0.1 nM.

B3: CGB19H-1D (designed binder)
chain: MAYYDPETGTWYSGGRDTYKLILNGKTLKGETTTEAVDAATAEKVFKHYANEHGVHGHWTYDPETKTFTVTERPEVIDASELTPAVGGGGSGGGGSGGGGSGGGGCHHHHHH
For B3, in experiment [1], the Dissociation Rate of Antibody at an acidic pH, pH2 (30s) later is 52.7%; the Dissociation Rate of Antibody at an acidic pH, pH3 (30s) later is 35.1%; the Dissociation Rate of Antibody at an acidic pH, pH5 (30s) later worked out at 7.1%. In [2], the Binding Rate of Antibody after Running Buffer for 10 min (Binding portion) was found to be 52.6%.

B4: CGB19H-4D (designed binder)
chain: MAYYDPETGTWYSGGRDTYKLILNGKTLKGETTTEAVDAATAEKVFKHYANEHGVHGHWTYDPETKTFTVTERPEVIDASELTPAVDTYKLILNGKTLKGETTTEAVDAATAEKVFKHYANEHGVHGHWTYDPETKTFTVTERPEVIDASELTPAVDTYKLILNGKTLKGETTTEAVDAATAEKVFKHYANEHGVHGHWTYDPETKTFTVTERPEVIDASELTPAVDTYKLILNGKTLKGETTTEAVDAATAEKVFKHYANEHGVHGHWTYDPETKTFTVTERPEVIDASELTPAVGGGGSGGGGSGGGGSGGGGCHHHHHH
Regarding B4, in experiment [1], the Dissociation Rate of Antibody at an acidic pH, pH2 (30s) later is 55.6% and 76.3%; the Dissociation Rate of Antibody at an acidic pH, pH3 (30s) later was 34.6% and 18.6%; the Dissociation Rate of Antibody at an acidic pH, pH5 (30s) later is 6.9% and 3.7%. In addition, the Binding Rate of Antibody after Running Buffer for 10 min (Binding portion) in [2] was 59.4% and 77.8%.

B5: M-PG07 (designed binder)
chain: MDTYKLILNGKTLKGETTTEAVDAATAEKVFKQYANEHGVDGEWTYDPETKTFTVTE
Turning to B5, the values for the Kd in [5] and in [6] were 230 nM and 290 nM, respectively.

B6: M-PG19 (designed binder)
chain: MDTYKLILNGKTLKGETTTEAVDAATAEKVFKHYANEHGVHGHWTYDPETKTFTVTE
Turning to B6, the equilibrium dissociation constant (Kd) came to 1000 nM in experiment [5], 43 nM in experiment [6] and 19 nM in experiment [4]. For the same molecule, the fold of affinity in the acidic region against M-PG01 in experiment [7] turned out to be 0.6 times. The same molecule yielded a fold of avidity in the neutral region against M-PG01 in experiment [8] of 11 times.

B7: OXADac-PG14 (designed binder)
chain: MGAGTPVTAPLAGTIWKVLASEGQTVAAGEVLLILEAMKMETEIRAAQAGTVRGIAVKAGDAVAVGDTLMTLAGSGSDLYDDDDKGIITSLYKKAGSAAAPFTDTYKLILNGKTLKGETTTEAVDAATAEKVFKQYANEHGVDGHWTYDPETKTFTVTE
With B7, in experiment [9], the Ratio of the remaining amount of antibody by SPR sensor gram at pH 4.0 is 71% and the off-rate (koff) (in general, the first-order rate constant of dissociation) was 0.04 s⁻¹.

B8: OXADac-PG20 (designed binder)
chain: MGAGTPVTAPLAGTIWKVLASEGQTVAAGEVLLILEAMKMETEIRAAQAGTVRGIAVKAGDAVAVGDTLMTLAGSGSDLYDDDDKGIITSLYKKAGSAAAPFTDTYKLILNGKTLKGETTTEAVHAATAEKVFKHYANEHGVHGHWTYDPETKTFTVTE
Turning to B8, the Ratio of the remaining amount of antibody by SPR sensor gram at pH 4.0 in [9] was found to be 58%.

B9: OXADac-PG17 (designed binder)
chain: MGAGTPVTAPLAGTIWKVLASEGQTVAAGEVLLILEAMKMETEIRAAQAGTVRGIAVKAGDAVAVGDTLMTLAGSGSDLYDDDDKGIITSLYKKAGSAAAPFTDTYKLILNGKRLKGETITEAVDAATAEKVFKQYANEHGVDGEWTYDPETKTFTVTE
On to B9, for which, in [9], the Ratio of the remaining amount of antibody by SPR sensor gram at pH 4.0 was 86% and the off-rate constant (koff) is 0.032 s⁻¹.

B10: OXADac-PG16 (designed binder)
chain: MGAGTPVTAPLAGTIWKVLASEGQTVAAGEVLLILEAMKMETEIRAAQAGTVRGIAVKAGDAVAVGDTLMTLAGSGSDLYDDDDKGIITSLYKKAGSAAAPFTDTYKLILNGKTLKGETITEAVDAATAEKVFKQYANEHGVDGEWTYDPETKTFTVTE
As for B10, in experiment [9], the Ratio of the remaining amount of antibody by SPR sensor gram at pH 4.0 was 94% and the koff came out at 0.00013 s⁻¹.

B11: OXADac-PG07 (designed binder)
chain: MGAGTPVTAPLAGTIWKVLASEGQTVAAGEVLLILEAMKMETEIRAAQAGTVRGIAVKAGDAVAVGDTLMTLAGSGSDLYDDDDKGIITSLYKKAGSAAAPFTDTYKLILNGKTLKGETTTEAVDAATAEKVFKQYANEHGVDGEWTYDPETKTFTVTE
With B11, in experiment [9], the Ratio of the remaining amount of antibody by SPR sensor gram at pH 4.0 was determined as 93% and the koff was 0.00011 s⁻¹.

B12: OXADac-PG15 (designed binder)
chain: MGAGTPVTAPLAGTIWKVLASEGQTVAAGEVLLILEAMKMETEIRAAQAGTVRGIAVKAGDAVAVGDTLMTLAGSGSDLYDDDDKGIITSLYKKAGSAAAPFTDTYKLILNGKRLKGETTTEAVDAATAEKVFKQYANEHGVDGEWTYDPETKTFTVTE
Regarding B12, in experiment [9], the Ratio of the remaining amount of antibody by SPR sensor gram at pH 4.0 is 90% and the koff was 0.00044 s⁻¹.

B13: OXADac-PG19 (designed binder)
chain: MGAGTPVTAPLAGTIWKVLASEGQTVAAGEVLLILEAMKMETEIRAAQAGTVRGIAVKAGDAVAVGDTLMTLAGSGSDLYDDDDKGIITSLYKKAGSAAAPFTDTYKLILNGKTLKGETTTEAVDAATAEKVFKHYANEHGVHGHWTYDPETKTFTVTE
Turning to B13, in experiment [9], the Ratio of the remaining amount of antibody by SPR sensor gram at pH 4.0 was determined as 38% and the koff came out at 0.27 s⁻¹. For the same molecule, in experiment [10], the increase of the dissociation rate constant against the wild-type came out at 1000 fold and the percent of adsorbed IgG dissociated at pH 4.0 was determined as 60%.

B14: OXADac-PG13 (designed binder)
chain: MGAGTPVTAPLAGTIWKVLASEGQTVAAGEVLLILEAMKMETEIRAAQAGTVRGIAVKAGDAVAVGDTLMTLAGSGSDLYDDDDKGIITSLYKKAGSAAAPFTDTYKLILNGKTLKGETTTEAVDAATAEKVFKQYANEHGVHGEWTYDPETKTFTVTE
With B14, in experiment [9], the Ratio of the remaining amount of antibody by SPR sensor gram at pH 4.0 turned out to be 64% and the dissociation rate constant (koff) is 0.06 s⁻¹.
